Test results as given in patent US20240368565A1 (PROMEGA, published 2024).
Changes are numbered by the printed parent chain. Names and notes keep the numbering of the source. Values joined by “and” are separate entries in the source; they are usually repeats but may differ in a detail not shown here. Equal entries are not always repeated. Ends that are not written are not given here. * marks the point of attachment. Biotin = O=C1N[C@H]2[C@H](CS[C@H]2CCCCC(=O)*)N1

Key:
FKBP-SmHT-HiBiT = assay: cell-based or functional assay
[1] = biological target: T1, Biotin-VS-HiBiT-5xGly/Ser-HaloTag[3-19] (I2R) (N-terminal biotin (on Val1), used for immobilisation on streptavidin probes; not carried by the letters); assay: BLI; biotin-peptide on streptavidin probe; PBST, 25 C
T1 construct: Synthetic peptide
T1 peptide: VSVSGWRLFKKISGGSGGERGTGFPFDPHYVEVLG

[2] = biological target: T2, Biotin-HaloTag[3-19] (I2R)-4xGly/Ser-VS-HiBiT (N-terminal biotin); assay: as above
T2 construct: Synthetic peptide; also called HaloTag[3-19](12R)-4×Gly/Ser-VS-HiBiT; DualTag peptide
T2 peptide: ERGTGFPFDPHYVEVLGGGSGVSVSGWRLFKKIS

[3] = biological target: T3, VS-HiBiT-HaloTag[3-19] (I2R) (not fully specified; N-terminal biotin (on Val1) per the head of Table 1 ('All peptides are biotinylated at the N-terminus'), though Table 2 does not print Biotin for this entry; not carried by the …); assay: as above
T3 construct: Synthetic peptide

[4] = biological target: T4, Biotin-HaloTag[3-19] (I2R)-VS-HiBiT (N-terminal biotin (on Glu1), used for immobilisation on streptavidin probes; not carried by the letters); assay: as above
T4 construct: Synthetic peptide
T4 peptide: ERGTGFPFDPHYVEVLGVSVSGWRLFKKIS

[5] = biological target: T5, Biotin-HaloTag[3-19] (I2R)-4xGly/Ser-VS-HiBiT (K8R + K9R) (N-terminal biotin (on Glu1), used for immobilisation on streptavidin probes; not carried by the letters); assay: as above
T5 construct: Synthetic peptide
T5 peptide: T2 peptide with K31R, K32R

[6] = biological target: T6, Biotin-HaloTag[3-19] (I2R)-4xGly/Ser-HiBiT (N-terminal biotin (on Glu1), used for immobilisation on streptavidin probes; not carried by the letters); assay: as above
T6 construct: Synthetic peptide
T6 peptide: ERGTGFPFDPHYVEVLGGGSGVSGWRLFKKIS

[7] = biological target: T7, Biotin-HaloTag[3-19] (G3K + E14K)-4xGly/Ser-VS-HiBiT (N-terminal biotin); assay: as above
T7 construct: Synthetic peptide; also called HaloTag[3-19](G3K + E14K)-4xGS-VSHiBiT
T7 peptide: T2 peptide with R2I, G3K, E14K

[8] = biological target: T8, Biotin-HaloTag[3-19] (I2R + G3K)-4xGly/Ser-VS-HiBiT (N-terminal biotin); assay: as above
T8 construct: Synthetic peptide; also called HaloTag[3-19](I2R + G3K)-4xGS-VSHiBIT
T8 peptide: T2 peptide with G3K

[9] = biological target: T9, Biotin-HaloTag[3-19] (I2R + D9R)-4xGly/Ser-VS-HiBiT (N-terminal biotin); assay: as above
T9 construct: Synthetic peptide; also called HaloTag[3-19](I2R + D9R)-4xGS-VSHiBiT
T9 peptide: T2 peptide with D9R

[10] = biological target: T10, Biotin-HaloTag[3-19] (E14K)-4xGly/Ser-VS-HiBIT (N-terminal biotin); assay: as above
T10 construct: Synthetic peptide
T10 peptide: T2 peptide with R2I, E14K

[11] = biological target: T11, Biotin-HaloTag[3-19] (D9R)-4xGly/Ser-VS-HiBiT (N-terminal biotin); assay: as above
T11 construct: Synthetic peptide
T11 peptide: T2 peptide with R2I, D9R

[12] = biological target: T12, Biotin-HaloTag[3-19] (I2R + G5R)-4xGly/Ser-VS-HiBiT (N-terminal biotin); assay: as above
T12 construct: Synthetic peptide; also called HaloTag[3-19](I2R + G5R)-4xGS-VSHiBiT
T12 peptide: T2 peptide with G5R

[13] = biological target: T13, Biotin-HaloTag[3-19] (G5R)-4xGly/Ser-VS-HiBiT (N-terminal biotin); assay: as above
T13 construct: Synthetic peptide
T13 peptide: T2 peptide with R2I, G5R

[14] = biological target: T14, Biotin-HaloTag[3-19] (I2R + G17R)-4xGly/Ser-VS-HiBiT (N-terminal biotin); assay: as above
T14 construct: Synthetic peptide; also called HaloTag[3-19](I2R + G17R)-4xGS-VSHiBiT
T14 peptide: T2 peptide with G17R

[15] = biological target: T15, Biotin-HaloTag[3-19] (L16R)-4xGly/Ser-VS-HiBiT (N-terminal biotin); assay: as above
T15 construct: Synthetic peptide
T15 peptide: T2 peptide with R2I, L16R

[16] = biological target: T16, Biotin-HaloTag[3-19] (G3K + L16R)-4xGly/Ser-VS-HiBiT (N-terminal biotin); assay: as above
T16 construct: Synthetic peptide; also called HaloTag[3-19](G3K + L16R)-4xGS-VSHiBiT
T16 peptide: T2 peptide with R2I, G3K, L16R

[17] = biological target: T17, Biotin-HaloTag[3-19] (D9R + E14K)-4xGly/Ser-VS-HiBiT (N-terminal biotin); assay: as above
T17 construct: Synthetic peptide; also called HaloTag[3-19](D9R + E14K)-4xGS-VSHiBiT
T17 peptide: T2 peptide with R2I, D9R, E14K

[18] = biological target: T18, Biotin-HaloTag[3-19] (D9R + L16R)-4xGly/Ser-VS-HiBiT (N-terminal biotin); assay: as above
T18 construct: Synthetic peptide; also called HaloTag[3-19](D9R + L16R)-4xGS-VSHiBiT
T18 peptide: T2 peptide with R2I, D9R, L16R

[19] = biological target: T19, Biotin-HaloTag[3-19] (G3K)-4xGly/Ser-VS-HiBIT (N-terminal biotin); assay: as above
T19 construct: Synthetic peptide
T19 peptide: T2 peptide with R2I, G3K

Biotin-VS-HiBiT = biological target: T20, Biotin-VS-HiBiT; assay: as above
T20 construct: Synthetic peptide
T20 peptide: Biotin-VSVSGWRLFKKIS

B1: HaloTag[22-297](M2F)-12xGly/Ser-LgBiT (other)
chain: MFHYVDVGPRDGTPVLFLHGNPTSSYVWRNIIPHVAPTHRCIAPDLIGMGKSDKPDLGYFFDDHVRFMDAFIEALGLEEVVLVIHDWGSALGFHWAKRNPERVKGIAFMEFIRPIPTWDEWPEFARETFQAFRTTDVGRKLIIDQNVFIEGTLPMGVVRPLTEVEMDHYREPFLNPVDREPLWRFPNELPIAGEPANIVALVEEYMDWLHQSPVPKLLFWGTPGVLIPPAEAARLAKSLPNCKAVDIGPGLNLLQEDNPDLIGSEIARWLSTLEISGGSGGSGGGGSGGMVFTLEDFVGDWEQTAAYNLDQVLEQGGVSSLLQNLAVSVTPIQRIVRSGENALKIDIHVIIPYEGLSADQMAQIEEVFKVVYPVDDHHFKVILPYGTLVIDGVTPNMLNYFGRPYEGIAVFDGKKITVTGTLWNGNKIIDERLITPDGSMLFRVTINS
- luminescence (FIG. 9) (FKBP-SmHT-HiBiT): ~100 fold

B2: HaloTag[22-297](Q145H+P154R)-LgBiT (other)
chain: MMHYVDVGPRDGTPVLFLHGNPTSSYVWRNIIPHVAPTHRCIAPDLIGMGKSDKPDLGYFFDDHVRFMDAFIEALGLEEVVLVIHDWGSALGFHWAKRNPERVKGIAFMEFIRPIPTWDEWPEFARETFQAFRTTDVGRKLIIDHNVFIEGTLRMGVVRPLTEVEMDHYREPFLNPVDREPLWRFPNELPIAGEPANIVALVEEYMDWLHQSPVPKLLFWGTPGVLIPPAEAARLAKSLPNCKAVDIGPGLNLLQEDNPDLIGSEIARWLSTLEISGGSGGSGGGGSGGMVFTLEDFVGDWEQTAAYNLDQVLEQGGVSSLLQNLAVSVTPIQRIVRSGENALKIDIHVIIPYEGLSADQMAQIEEVFKVVYPVDDHHFKVILPYGTLVIDGVTPNMLNYFGRPYEGIAVFDGKKITVTGTLWNGNKIIDERLITPDGSMLFRVTINSGSGHHHHHH
- luminescence (FIG. 9) (FKBP-SmHT-HiBiT): ~100 fold

B3: HaloTag[22-297](M2F + D53G + K140E)-12xGly/Ser-LgBiT-3xGly/Ser-6xHis (other)
chain: B2 chain with M2F, D53G, K140E, H145Q, R154P
- Kd [1]: 782 pM
- koff [1]: 6.94e-05 s⁻¹
- kon [1]: 88700 M⁻¹ s⁻¹
- Kd [2]: 576 pM
- koff [2]: 4.82e-05 s⁻¹
- kon [2]: 83800 M⁻¹ s⁻¹
- Kd [3]: 613 pM
- koff [3]: 6.77e-05 s⁻¹
- kon [3]: 110000 M⁻¹ s⁻¹
- Kd [4]: 713 pM
- koff [4]: 6.05e-05 s⁻¹
- kon [4]: 84800 M⁻¹ s⁻¹
- kon [5]: 71400 M⁻¹ s⁻¹
- Kd [6]: 323 pM
- koff [6]: 1.98e-05 s⁻¹
- kon [6]: 61300 M⁻¹ s⁻¹

B4: HaloTag[22-297](M2F + D53G + V177E)-12xGly/Ser-LgBiT-3xGly/Ser-6xHis (other)
chain: B2 chain with M2F, D53G, H145Q, R154P, V177E
notes: Purified tandem polypeptide reporter variant
- Kd [2]: 669 pM
- koff [2]: 4.09e-05 s⁻¹
- kon [2]: 61300 M⁻¹ s⁻¹

B5: HaloTag[22-297](M2F + K140E)-12xGly/Ser-LgBiT-3xGly/Ser-6xHis (other)
chain: B2 chain with M2F, K140E, H145Q, R154P
notes: as for B4
- kon [7]: 128000 M⁻¹ s⁻¹
- kon [8]: 104000 M⁻¹ s⁻¹
- kon [9]: 128000 M⁻¹ s⁻¹
- kon [10]: 108000 M⁻¹ s⁻¹
- Kd [11]: 126 pM
- koff [11]: 1.09e-05 s⁻¹
- kon [11]: 86600 M⁻¹ s⁻¹
- Kd [2]: 684 pM and 466 pM
- koff [2]: 4.56e-05 s⁻¹ and 3.26e-05 s⁻¹
- kon [2]: 66700 M⁻¹ s⁻¹ and 70000 M⁻¹ s⁻¹
- kon [12]: 95100 M⁻¹ s⁻¹
- kon [13]: 85300 M⁻¹ s⁻¹
- kon [14]: 93300 M⁻¹ s⁻¹
- kon [15]: 77900 M⁻¹ s⁻¹
- kon [16]: 97100 M⁻¹ s⁻¹
- Kd [17]: 111 pM
- koff [17]: 1.69e-05 s⁻¹
- kon [17]: 152000 M⁻¹ s⁻¹
- kon [18]: 134000 M⁻¹ s⁻¹
- Kd [19]: 264 pM
- koff [19]: 1.93e-05 s⁻¹
- kon [19]: 73000 M⁻¹ s⁻¹

B6: HaloTag[22-297](M2F + F148M + V177E)-12xGly/Ser-LgBiT-3xGly/Ser-6xHis (other)
chain: B2 chain with M2F, H145Q, F148M, R154P, V177E
notes: as for B4
- Kd (Biotin-VS-HiBiT): 2400 pM
- koff (Biotin-VS-HiBiT): 0.000628 s⁻¹
- kon (Biotin-VS-HiBiT): 261000 M⁻¹ s⁻¹
- Kd [2]: 509 pM
- koff [2]: 2.75e-05 s⁻¹
- kon [2]: 54000 M⁻¹ s⁻¹
- Kd [13]: 485 pM
- koff [13]: 2.23e-05 s⁻¹
- kon [13]: 46000 M⁻¹ s⁻¹
- Kd [19]: 102 pM
- koff [19]: 5.03e-06 s⁻¹
- kon [19]: 49500 M⁻¹ s⁻¹

B7: LgBiT-6xHis (other)
chain: MVFTLEDFVGDWEQTAAYNLDQVLEQGGVSSLLQNLAVSVTPIQRIVRSGENALKIDIHVIIPYEGLSADQMAQIEEVFKVVYPVDDHHFKVILPYGTLVIDGVTPNMLNYFGRPYEGIAVFDGKKITVTGTLWNGNKIIDERLITPDGSMLFRVTINSHHHHHH
notes: also called LgBiT-6×His; LgBiT alone
- Kd [8]: 323 pM
- koff [8]: 2.4e-05 s⁻¹
- kon [8]: 74500 M⁻¹ s⁻¹
- Kd (Biotin-VS-HiBiT): 5060 pM
- koff (Biotin-VS-HiBiT): 0.000931 s⁻¹
- kon (Biotin-VS-HiBiT): 184000 M⁻¹ s⁻¹
- Kd [12]: 110 pM
- koff [12]: 5.86e-06 s⁻¹
- kon [12]: 53200 M⁻¹ s⁻¹
- kon [17]: 83000 M⁻¹ s⁻¹
- kon [18]: 64800 M⁻¹ s⁻¹
